B1: MOR12743 (antibody, V domains shown)
VH: QVQLVQSGAEVKKPGASVKVSCKASGYTFTSNFIHWVRQAPGQGLEWMGWISPYNGDTNYAQKFQGRVTMTRDTSISTAYMELSRLRSEDTAVYYCARESVYYGSDYGYNGMDIWGQGTLVTVSS
VL: DIELTQPPSVSVSPGQTASITCSGDNLGEEYVSWYQQKPGQAPVLVIYDDTKRPSGIPERFSGSNSGNTATLTISGTQAEDEADYYCASWDLWSVEVFGGGTKLTVLG
notes: Said to be disclosed and characterized in WO 2013/057241; also called anti-IL-17C biotinylated MOR12743 antibody; anti-IL-17C MORI 2743 antibody
B2: MOR22420 (antibody, V domains shown)
VH: QVQLVQSGAEVKKPGSSVKVSCKASGGTFSSYAISWVRQAPGQGLEWMGTIDPFFGKTYYAQKFQGRVTITADESTSTAYMELSSLRSEDTAVYYCARDVSSISYYFHEYYSDRFDYWGQGTLVTVSS
VL: DIALTQPASVSGSPGQSITISCTGTSSDVGGYEYVNWYQQHPGKAPKLMIYDDSYRPSGVSNRFSGSKSGNTASLTISGLQAEDEADYYCQSTDPHSTVVFGGGTKLTVLG
notes: also called biotinylated MOR22420; MOR22420 antibody

Columns and labels:
murine IL-17C = target: T1, murine IL-17C (mouse, UniProt Q8K4C5 17-194, limits assumed); experiment: IHC on paraffin sections of mouse ear skin (MC903 model), biotinylated antibody
T1 construct: Endogenous IL-17C in paraffin sections of ear skin of BALB/c mice (IHC); also called IL-17C (mouse skin)
T1 sequence (looked up): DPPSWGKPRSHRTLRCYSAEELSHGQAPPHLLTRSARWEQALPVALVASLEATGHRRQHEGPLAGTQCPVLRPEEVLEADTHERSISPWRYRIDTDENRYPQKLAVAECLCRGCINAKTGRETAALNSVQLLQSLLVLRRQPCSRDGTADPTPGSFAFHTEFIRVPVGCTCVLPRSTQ
Procedure: (§1) 4 μm-thick slices from paraffin-embedded skin biopsies from healthy subjects and subjects with atopic dermatitis were analyzed by IHC. Staining for IL-17C expression was performed with biotinylated MOR22420 (and MOR03207 isotype control antibody). In brief, sections were deparaffinised, rehydrated and unmasked by heat epitope antigen retrieval. Endogenous peroxidase was blocked in BLOXALL™ Blocking Solution (Vector Laboratories) and non-specific binding was blocked with 2.5% Horse Serum Blocking Solution (Vector Laboratories). The primary antibodies were incubated for one hour at room temperature. Binding of MOR22420 biotinylated antibody and MOR03207 biotinylated antibody was detected by incubation with Avidin Biotin Peroxidase Complex (Vector Laboratories). The signal was developed using the peroxidase substrate diaminobenzidine tetrahydrochloride (Sigma). Mayer's hematoxylin (BDH) was used for counterstaining before dehydration and mounting of slides.
At sacrifice, samples form ear skin were collected and fixed in 4% formaldehyde before embedding in paraffin. […] Five fields per ear (high power field ×20) covering the whole ear from top to bottom were measured, and the 5 values were averaged per ear and per mice (left/right ear). […]

human IL-17C = target: T2, human IL-17C (human, UniProt Q9P0M4 19-197); experiment: IHC on paraffin sections of human skin (healthy and atopic dermatitis), biotinylated antibody, avidin-biotin-peroxidase detection
T2 construct: Endogenous IL-17C in paraffin sections of human skin biopsies (IHC); The background calls IL-17C a secreted homodimer; also called interleukin 17C
T2 sequence: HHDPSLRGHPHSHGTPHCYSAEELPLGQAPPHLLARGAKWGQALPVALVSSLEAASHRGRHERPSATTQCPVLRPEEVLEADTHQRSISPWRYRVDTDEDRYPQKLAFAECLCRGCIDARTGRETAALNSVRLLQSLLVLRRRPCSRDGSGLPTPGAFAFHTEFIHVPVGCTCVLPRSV
Procedure: as §1

Row | Binder | binding result (murine IL-17C) | binding result (human IL-17C)
1 | B1 | binds | 
2 | B2 |  | binds

Reference: patent US20180273614A1 (GALAPAGOS, published 2018)
